Measured values taken from publication PMC10685452.
Where no end group is shown, it is not given here.

Biological target: T1, hGOAT-eGFP (human ghrelin O-acyltransferase with C-terminal eGFP and His10 tag) (human) (UniProt Q96T53)
T1 sequence: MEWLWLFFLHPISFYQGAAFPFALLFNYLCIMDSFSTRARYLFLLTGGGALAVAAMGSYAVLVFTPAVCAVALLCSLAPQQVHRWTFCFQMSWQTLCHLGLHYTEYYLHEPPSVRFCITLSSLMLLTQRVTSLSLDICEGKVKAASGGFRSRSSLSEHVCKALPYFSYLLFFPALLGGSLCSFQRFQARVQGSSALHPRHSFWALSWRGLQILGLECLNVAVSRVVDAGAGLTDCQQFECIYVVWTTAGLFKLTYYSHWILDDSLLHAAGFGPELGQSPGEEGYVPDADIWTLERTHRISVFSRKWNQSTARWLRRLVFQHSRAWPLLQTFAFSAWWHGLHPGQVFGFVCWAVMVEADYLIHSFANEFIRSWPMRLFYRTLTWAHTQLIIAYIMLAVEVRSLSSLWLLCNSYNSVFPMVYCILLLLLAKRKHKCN

B1: fluorescently labeled ghrelin mimetic peptide GSSFLC-NH2 (acrylodan-labelled) (peptide)
peptide: GSSFLC-NH2
modifications: not fully specified (residue 6); printed as GSSFLC_NH2_; ends and bridges not checked; also: acrylodan label, site not given here
B1 showed a ghrelin octanoylation activity of the MEGA-9 solubilisation supernatant of hGOAT-eGFP (HPLC, conversion of the fluorescent peptide substrate to the octanoylated product) of 20%.
